Data from patent publication US20200024330A1.

Assays:
Test in all cases: cell-based or functional assay
[1] = molecular target: HIV-1 Env of isolate 92UG024 (HIV-1)
[2] = molecular target: HIV-1 Env of isolate 93TH305 (pseudovirus) (HIV-1 isolate 93TH305, subtype B)
[3] = molecular target: HIV-1 Env of isolate MGRM-A-013 (clade A), on pseudovirus (HIV-1)
[4] = molecular target: HIV-1 Env of isolate MGRM-AG-012 (CRF_AG), on pseudovirus (HIV-1)
[5] = molecular target: HIV-1 Env of isolate MGRM-AG-013 (CRF_AG), on pseudovirus (HIV-1)
[6] = molecular target: HIV-1 Env of isolate MGRM-C-013 (HIV-1)
[7] = molecular target: HIV-1 Env of isolate MGRM-D-013 (HIV-1)
[8] = molecular target: HIV-1 Env of isolate MGRM-F1-016 (subtype F), on pseudovirus (HIV-1)
[9] = molecular target: HIV-1 Env of isolate MGRM-F1-022 (subtype F), on pseudovirus (HIV-1)
[10] = molecular target: HIV-1 Env of isolate MGRM-G-024 (HIV-1)
[11] = molecular target: HIV-1 JR-CSF Env D185A (HIV-1 (isolate JR-CSF)) (UniProt P20871)
[12] = molecular target: HIV-1 JR-CSF Env V127A (HIV-1 (isolate JR-CSF)) (UniProt P20871)
[13] = molecular target: HIV-1 92RW020 envelope protein (Env) on pseudovirus (HIV-1)
[14] = molecular target: HIV-1 92RW024 envelope glycoprotein (Env) on pseudovirus (HIV-1)
[15] = molecular target: HIV-1 93IN905 envelope glycoprotein (Env) on pseudovirus (HIV-1)
[16] = molecular target: HIV-1 Env of isolate MGRM-D-016 (clade D) (HIV-1)
[17] = molecular target: HIV-1 Env of isolate MGRM-G-027 (clade G pseudovirus) (HIV-1)
[18] = molecular target: HIV-1 Env of pseudovirus 6535.3 (Acute), clade B (HIV-1)
[19] = molecular target: HIV-1 Env of pseudovirus 92BR020, clade B (HIV-1)
[20] = molecular target: HIV-1 Env of pseudovirus MGRM-Chronic-B-003, clade B (HIV-1)
[21] = molecular target: HIV-1 Env of pseudovirus THR0.18 (Acute), clade B (HIV-1)
[22] = molecular target: HIV-1 IAVI-C22 envelope protein (Env) on pseudovirus (HIV-1)
[23] = molecular target: HIV-1 MGRM-C-009 Env (HIV-1)
[24] = molecular target: HIV-1 MGRM-C-012 Env (HIV-1)
[25] = molecular target: HIV-1 MGRM-C-022 Env (HIV-1)
[26] = molecular target: HIV-1 MGRM-F1-021 Env (pseudovirus) (HIV-1)
[27] = molecular target: HIV-1 MGRM-A-010 envelope glycoprotein (Env) on pseudovirus (HIV-1)

5329_C19 (PGT-136) (antibody), sequence (VH): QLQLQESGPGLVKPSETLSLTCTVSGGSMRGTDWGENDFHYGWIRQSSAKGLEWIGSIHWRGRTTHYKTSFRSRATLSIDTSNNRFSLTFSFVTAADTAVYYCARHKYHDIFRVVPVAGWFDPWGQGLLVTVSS
5329_C19 (PGT-136) (antibody), sequence (VL): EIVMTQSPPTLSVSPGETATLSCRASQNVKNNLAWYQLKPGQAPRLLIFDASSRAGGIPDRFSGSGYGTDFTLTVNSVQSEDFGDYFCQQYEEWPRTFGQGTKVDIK

Substance | IC50 [1] | IC50 (µg/mL) neutralization [2] | IC50, single-round pseudovirus neutralization [3] | IC50, single-round pseudovirus neutralization [4] | IC50, single-round pseudovirus neutralization [5] | IC50 [6] | IC50 [7] | IC50, pseudovirus neutralization [8] | IC50, pseudovirus neutralization [9] | IC50, pseudovirus neutralization [10] | Fold IC50 increase relative to wild-type [11] | Fold IC50 increase relative to wild-type [12] | neutralization IC50 [13] | IC50 (µg/ml), pseudovirus neutralization [14] | IC50 (µg/ml), pseudovirus neutralization [16] | IC50 (µg/ml), pseudovirus neutralization [17] | IC50 (µg/ml), pseudovirus neutralization [18] | IC50 (µg/ml), pseudovirus neutralization [19] | IC50 (µg/ml), pseudovirus neutralization [20] | IC50 (µg/ml), pseudovirus neutralization [21] | also measured
5136_H01 (PGT-131) (antibody) | > 50 µg/mL | 0.016 µg/mL | > 50 µg/mL | > 50 µg/mL | 0.03 µg/mL | > 50 µg/mL | 4.14 µg/mL | > 50 µg/mL | > 50 µg/mL | 10.7 µg/mL | 0.7 fold | 0.6 fold | – | – | – | – | – | – | – | – | –
b12 (antibody) | – | – | – | – | – | – | – | – | – | – | – | – | > 50 µg/mL | > 50 µg/mL | 1.12 µg/mL | > 50 µg/mL | 1.93 µg/mL | > 50 µg/mL | > 50 µg/mL | 3.62 µg/mL | IC90 (pseudovirus neutralization) [15]: > 50 µg/mL; neutralization IC50 [22]: 3.6 µg/mL; IC50 [23]: > 50 µg/mL; IC50 [24]: > 50 µg/mL; IC50 [25]: > 50 µg/mL; IC50 (µg/ml), pseudovirus neutralization [26]: > 50 µg/mL
1495_C14 (PGC14) (antibody) | – | – | – | – | – | – | – | – | – | – | – | – | 28.6 µg/mL | > 50 µg/mL | > 50 µg/mL | > 50 µg/mL | 35 µg/mL | 4 µg/mL | > 50 µg/mL | > 50 µg/mL | neutralization IC50 [22]: 9.5 µg/mL; IC50 [23]: > 50 µg/mL; IC50 [24]: > 50 µg/mL; IC50 [25]: > 50 µg/mL; IC50 (µg/ml), pseudovirus neutralization [26]: 46 µg/mL
5329_C19 (PGT-136) (antibody) | 0.052 µg/mL | 20.2 µg/mL | > 50 µg/mL | > 50 µg/mL | > 50 µg/mL | > 50 µg/mL | > 50 µg/mL | > 50 µg/mL | 2.42 µg/mL | 0.152 µg/mL | – | – | – | – | – | – | – | – | – | – | –
5147_N06 (PGT-130) (antibody) | > 50 µg/mL | 0.021 µg/mL | > 50 µg/mL | > 50 µg/mL | 0.01 µg/mL | > 50 µg/mL | 0.429 µg/mL | > 50 µg/mL | > 50 µg/mL | 5.84 µg/mL | 0.9 fold | 0.8 fold | – | – | – | – | – | – | – | – | IC50 (ug/ml), neutralizing activity [15]: 0.0182 µg/mL; IC50 (ug/ml), neutralizing activity [27]: 0.0054 µg/mL
